In PMC2903414 (The Journal of Biological Chemistry, 2010):

Biological target: Flag-tagged full-length mouse sphingosine 1-phosphate receptor-1 (S1P1) (mouse, UniProt O08530 1-382)
Assay: co-IP

Sequence of Flag-tagged full-length mouse sphingosine 1-phosphate receptor-1 (S1P1) (O08530 whole entry): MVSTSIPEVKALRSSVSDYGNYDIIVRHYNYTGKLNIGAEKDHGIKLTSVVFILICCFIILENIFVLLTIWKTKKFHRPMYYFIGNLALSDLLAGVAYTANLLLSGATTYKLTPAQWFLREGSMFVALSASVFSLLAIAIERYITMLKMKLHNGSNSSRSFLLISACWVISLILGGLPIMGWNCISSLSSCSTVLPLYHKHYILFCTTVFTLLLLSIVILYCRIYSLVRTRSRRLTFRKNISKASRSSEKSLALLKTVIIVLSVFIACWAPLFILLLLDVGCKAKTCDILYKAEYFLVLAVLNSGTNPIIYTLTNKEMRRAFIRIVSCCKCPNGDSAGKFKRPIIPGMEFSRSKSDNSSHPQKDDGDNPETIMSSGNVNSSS

- fold interaction compared with the control proteins NKRp1A and S1P3: 10 fold
B1: HA-tagged mouse CD69 (natural protein, UniProt P37217 1-199, looked up)
chain: MDSENCSITENSSSHLERGQKDHGTSIHFEKHHEGSIQVSIPWAVLIVVLITSLIIALIALNVGKYNCPGLYEKLESSDHHVATCKNEWISYKRTCYFFSTTTKSWALAQRSCSEDAATLAVIDSEKDMTFLKRYSGELEHWIGLKNEANQTWKWANGKEFNSWFNLTGSGRCVSVNHKNVTAVDCEANFHWVCSKPSR
